From patent US20150218534A1, “MODIFIED DNA POLYMERASE” (TOYOBO CO., LTD., priority 2012, published 2015)

Tests used:
Assay type in all cases: biochemical
[1] = system: human genomic DNA (about 1.3 kb) with dUTP added; assay: Evaluation of uracil (dUTP) sensitivity by PCR with dUTP added to the reaction; settings: addition of 0.5 μM of dUTP
Description: The uracil sensitivity of the modified DNA polymerase of the present invention can be evaluated by PCR. For example, a dUTP solution is added at a final concentration of 0.5 μM to 200 μM to a common PCR reaction solution containing DNA as a template, a buffer, magnesium, dNTPs, primers, and a DNA polymerase to be evaluated, and thermal cycling is performed. After the reaction, the presence or absence of PCR products is confirmed by ethidium bromide-stained agarose electrophoresis, and the uracil sensitivity can be evaluated by the concentration of accepted dUTP. With a DNA polymerase having high uracil sensitivity, the extension reaction is inhibited by the addition of a small amount of dUTP, and PCR products cannot be confirmed. With a DNA polymerase having low uracil sensitivity, gene amplification by PCR can be confirmed without problem, even if a high concentration of dUTP is added. The modified DNA polymerase with low uracil sensitivity in the present invention refers to a DNA polymerase such that when optimum thermal cycling is performed using any primers and DNA as a template in a reaction buffer optimum for the enzyme, even if a high concentration of dUTP is added, an extension reaction is not inhibited and PCR products can be confirmed, compared to wild-type DNA polymerase, which has no mutation.
More specifically, 10× PCR buffer included in KOD-Plus-Ver. 2 (produced by Toyobo Co. Ltd.) or 10× PCR buffer included in Pfu DNA Polymerase (produced by Agilent) is used; dUTP (produced by Roche) is added to 50 μl of individual reaction solutions containing 1× PCR buffer, 1.5 mM MgSO4, dNTPs (dATP, dTTP, dCTP, and dGTP) in an amount of 0.2 mM, primers represented by SEQ ID NOs: 25 and 26 in an amount of 15 pmol for amplifying about 1.3 kb, 10 ng of human genomic DNA (produced by Roche), and 1 U of each respective enzyme, to final concentrations of 0.5, 5, 50, 100, and 200 μM. PCR is performed using a GeneAmp PCR system 9700 (Applied Biosystems) on the following schedule; preliminary reaction at 94° C. for 30 seconds, followed by 30 cycles, each cycle consisting of 98° C. for 10 seconds, 65° C. for 30 seconds, and 68° C. for 1 minute and 30 seconds. After the completion of each individual reaction, 5 μl of each of the resulting reaction solutions is subjected to agarose electrophoresis, followed by ethidium bromide staining. The uracil sensitivity can be evaluated by confirming amplified DNA fragments of about 1.3 kb under ultraviolet irradiation.
PCR was performed by the following method to evaluate uracil sensitivity. For PCR, components included in KOD-Plus-Ver. 2 (produced by Toyobo Co. Ltd.) were used. dUTP (produced by Roche) was added to 50 μl of individual reaction solutions containing 1× PCR buffer, 1.5 mM MgSO4, dNTPs (dATP, dTTP, dCTP, dGTP) in an amount of 0.2 mM, primers represented by SEQ ID NOs: 25 and 26 in an amount of 15 pmol for amplifying about 1.3 kb, 10 ng of human genomic DNA (produced by Roche), and 1 U of each respective enzyme, to final concentrations of 0.5, 5, 50, 100, and 200 μM. PCR was performed using a GeneAmp PCR system 9700 (produced by Applied Biosystems) on the following schedule: preliminary reaction at 94° C. for 30 seconds, followed by 30 cycles, each cycle consisting of 98° C. for 10 seconds, 65° C. for 30 seconds, and 68° C. for 1 minute and 30 seconds. After the completion of each individual reaction, 5 μl of each of the resulting reaction solutions was subjected to agarose electrophoresis, followed by ethidium bromide staining. Under ultraviolet irradiation, amplified DNA fragments of about 1.3 kb were confirmed. FIGS. 3, 4, 7, and 8 show the results.

[2] = system: Psychrobacter DNA; assay: PCR amplification using inosine-containing primers; settings: primers 75 pmol or 150 pmol, 35 cycles (FIG. 11)
Description: (§1) Using inosine-containing primers, the difference in PCR amplification was compared. For comparison, KOD mutants and KOD (wild-type), each mixed with 1 μg of a KOD antibody per U of the enzyme, and Taq DNA polymerase mixed with an antibody (a mixture of equal amounts of Taq DNA polymerase (produced by Toyobo Co. Ltd.) and Anti-Taq High (produced by Toyobo Co. Ltd.)) were used.
For PCR with the KOD mutants and PCR with the KOD, a buffer, MgSO4, and dNTPs included in KOD-Plus-Ver. 2 (produced by Toyobo Co. Ltd.) were used. 50 μl of individual reaction solutions containing 1× PCR buffer, 1.5 mM MgSO4, dNTPs (dATP, dTTP, dCTP, dGTP) in an amount of 0.2 mM, primers (SEQ ID NOs: 40 and 41) in an amount of 75 pmol or 150 pmol, 100 ng of Psychrobacter DNA, and 1 U of each respective enzyme mixed with the antibody were used. PCR was performed using a GeneAmp PCR system 9700 (Applied Biosystems) on the following schedule: preliminary reaction at 94° C. for 2 minutes, followed by 35 cycles, each cycle consisting of 98° C. for 10 seconds, 54° C. for 10 seconds, and 68° C. for 1 minute.
For PCR with the Taq DNA polymerase, 50 μl of a reaction solution containing 1× buffer included in Blend Taq (product of Toyobo), dNTPs (dATP, […], dCTP, dGTP) in an amount of 0.2 mM, primers in an amount of 75 pmol or 150 pmol (the same as above), 100 ng of Psychrobacter DNA, and 2.5 U of the enzyme mixed with the antibody was used. PCR was performed using a GeneAmp PCR system 9700 (Applied Biosystems) on the following schedule: preliminary reaction at 94° C. for 2 minutes, followed by 35 cycles, each cycle consisting of 94° C. for 30 seconds, 54° C. for 30 seconds, and 68° C. for 1 minute.
(§2) After the completion of each individual reaction, each of the resulting reaction solutions was analyzed using a DNA-1000 kit for MultiNA (produced by Shimadzu Corporation) to confirm amplified DNA fragments.

[3] = system: bisulfite-treated human genomic DNA (MINT1, RAR, THBS1, MINT31); assay: PCR amplification of bisulfite-treated DNA; settings: 40 cycles (FIG. 12)
Description: as §1, with “bisulfite-treated DNA as a template and various” for “inosine-containing”, “mutant (Y7A/V93K)” for “mutants”
The bisulfite-treated DNA used was human genomic DNA (produced by Roche) that had been treated with a MethylCode Bisulfite Conversion Kit of Invitrogen.
For PCR with the KOD mutant (Y7A/V93K) and PCR with the KOD, a buffer, MgSO4, and dNTPs included in KOD-Plus-Ver. 2 (produced by Toyobo Co. Ltd.) were used. 50 μl of individual reaction solutions containing 1× PCR buffer, 1.5 mM MgSO4, dNTPs (dATP, dTTP, dCTP, dGTP) in an amount of 0.2 mM, primers (SEQ ID NOs: 42 and 43 for amplification of MINT1; SEQ ID NOs: 44 and 45for amplification of RAR; SEQ ID NOs: 46 and 47 for amplification of THBS1; SEQ ID NOs: 48 and 49 for amplification of MINT31) in an amount of 15 pmol, 1 μl of bisulfite-treated DNA extract, and 1 U of each respective enzyme mixed with the antibody were used. PCR was performed using a GeneAmp PCR system 9700 (Applied Biosystems) on the following schedule: preliminary reaction at 94° C. for 2 minutes, followed by 40 cycles, each cycle consisting of 98° C. for 10 seconds, 55° C. for 15 seconds, and 68° C. for 1 minute.
For PCR with the Taq DNA polymerase, 50 μl of a reaction solution containing 1× buffer included in Blend Taq (product of Toyobo), dNTPs (dATP, […], dCTP, dGTP) in an amount of 0.2 mM, primers in an amount of 15 pmol (the same as above), 1 μl of bisulfite-treated DNA extract, and 2.5 U of the enzyme mixed with the antibody was used. […]
as §2

B1: KOD (wild-type): wild-type DNA polymerase from Thermococcus kodakaraensis (KOD) (protein, listed as Thermococcus kodakaraensis)
chain: MILDTDYITEDGKPVIRIFKKENGEFKIEYDRTFEPYFYALLKDDSAIEEVKKITAERHGTVVTVKRVEKVQKKFLGRPVEVWKLYFTHPQDVPAIRDKIREHPAVIDIYEYDIPFAKRYLIDKGLVPMEGDEELKMLAFDIETLYHEGEEFAEGPILMISYADEEGARVITWKNVDLPYVDVVSTEREMIKRFLRVVKEKDPDVLITYNGDNFDFAYLKKRCEKLGINFALGRDGSEPKIQRMGDRFAVEVKGRIHFDLYPVIRRTINLPTYTLEAVYEAVFGQPKEKVYAEEITTAWETGENLERVARYSMEDAKVTYELGKEFLPMEAQLSRLIGQSLWDVSRSSTGNLVEWFLLRKAYERNELAPNKPDEKELARRRQSYEGGYVKEPERGLWENIVYLDFRSLYPSIIITHNVSPDTLNREGCKEYDVAPQVGHRFCKDFPGFIPSLLGDLLEERQKIKKKMKATIDPIERKLLDYRQRAIKILANSYYGYYGYARARWYCKECAESVTAWGREYITMTIKEIEEKYGFKVIYSDTDGFFATIPGADAETVKKKAMEFLKYINAKLPGALELEYEGFYKRGFFVTKKKYAVIDEEGKITTRGLEIVRRDWSEIAKETQARVLEALLKDGDVEKAVRIVKEVTEKLSKYEVPPEKLVIHEQITRDLKDYKATGPHVAVAKRLAARGVKIRPGTVISYIVLKGSGRIGDRAIPFDEFDPTKHKYDAEYYIENQVLPAVERILRAFGYRKEDLRYQKTRQVGLSAWLKPKGT
PCR products on addition of dUTP [1]: no PCR products were confirmed | amplification with inosine-containing primers [2]: not amplified | amplification of bisulfite-treated DNA [3]: not amplified
